Key:
Aurora-A = target: T1, Aurora-A (Homo sapiens, UniProt O14965); assay: Millipore radiometric kinase activity assay, Aurora-A (h); format: biochemical
T1 construct: purchased Millipore (assay service)
T1 sequence (O14965 1-403): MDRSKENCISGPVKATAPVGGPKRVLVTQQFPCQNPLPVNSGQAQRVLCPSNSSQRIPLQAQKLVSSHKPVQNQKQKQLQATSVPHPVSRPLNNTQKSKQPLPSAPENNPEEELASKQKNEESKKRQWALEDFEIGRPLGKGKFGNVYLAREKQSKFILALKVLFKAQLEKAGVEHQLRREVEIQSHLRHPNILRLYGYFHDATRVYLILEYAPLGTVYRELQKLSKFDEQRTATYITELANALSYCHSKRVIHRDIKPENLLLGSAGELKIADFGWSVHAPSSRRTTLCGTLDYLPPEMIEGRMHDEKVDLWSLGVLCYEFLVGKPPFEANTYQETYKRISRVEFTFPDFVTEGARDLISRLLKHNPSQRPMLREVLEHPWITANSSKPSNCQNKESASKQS
Procedure: (§1) A commercial radiometric assay service (Millipore, Billerica, Mass.) was used to test the specificity and potency of peptides containing a coupled transduction domain and therapeutic domain, hereinafter “complete peptides”). In these assays, if the kinase is not inhibited by an inhibitor peptide, a positively charged substrate is phosphorylated with a radiolabeled phosphate group from an ATP.
(§2) In a final reaction volume of 25 μL, Aurora-A (h) (5-10 mU) is incubated with 8 mM MOPS pH 7.0, 0.2 mM EDTA, 200 μM LRRASLG [SEQ ID NO: 50] (Kemptide), 10 mM MgAcetate and [γ-^33P-ATP] (specific activity approx. 500 cpm/pmol, concentration as required). The reaction is initiated by the addition of the MgATP mix. After incubation for 40 minutes at room temperature, the reaction is stopped by the addition of 5 μL of a 3% phosphoric acid solution. 10 μL of the reaction is then spotted onto a P30 filtermat and washed three times for 5 minutes in 50 mM phosphoric acid and once in methanol prior to drying and scintillation counting.
(§3) IC50 values for inhibitor peptides were determined using Millipore's IC50Profiler Express service. The IC50 value was estimated from a 10-point curve of one-half log dilutions. For peptides tested for specificity, the concentration of the peptides that inhibited approximately 95% of MK2 activity was chosen to profile against a battery of kinases related to MK2, cell viability, or human disease from MilliporeKinaseProfiler service. In both assays, compounds were supplied in dimethylsulfoxide (DMSO). Every kinase activity measurement was conducted in duplicate.
(§4) Therapeutic inhibitor peptides were assayed for activity against human kinases related to MK2, cell viability, or human disease. The assays were performed using concentrations of therapeutic inhibitor peptides that yielded 2% to 8% of normal MK2 activity. Error is reported as the standard deviation between 2 samples, and “c” is rat AMPK whereas all other kinases used are human kinases.

GSK3β = target: T2, GSK3β (Homo sapiens, UniProt P49841); assay: Millipore radiometric kinase activity assay, GSK3β (h); format: biochemical
T2 construct: purchased Millipore (assay service)
Procedure: as §1
as §2, with “GSK3β” for “Aurora-A”, “20” for “200”, “[…](p)EDEEE” for “LRRASLG”, “57] (phospho GS2 peptide),” for “50] (Kemptide),”
as §3, §4

KDR = target: T3, KDR (Homo sapiens, UniProt P35968); assay: Millipore radiometric kinase activity assay, KDR (h); format: biochemical
T3 construct: purchased Millipore (assay service)
Procedure: as §1
as §2, with “μL, KDR” for “μL, Aurora-A”, “EDTA, 0.33 mg/mL myelin basic protein,” for “EDTA, 200 μM LRRASLG [SEQ ID NO: 50] (Kemptide),”, “in 75” for “in 50”
as §3, §4

LIMK1 = target: T4, LIMK1 (Homo sapiens, UniProt P53667); assay: Millipore radiometric kinase activity assay, LIMK1 (h); format: biochemical
T4 construct: purchased Millipore (radiometric assay service)
Procedure: as §1
as §2, with “μL, LIMK1” for “μL, Aurora-A”, “EDTA, 0.6 mg/mL cofilin,” for “EDTA, 200 μM LRRASLG [SEQ ID NO: 50] (Kemptide),”, “in 75” for “in 50”
as §3, §4

43 kinases = assay: Specificity profile against battery of 43 kinases (Millipore KinaseProfiler); format: biochemical, human
Procedure: as §1, §3, §4

T2 sequence (P49841 whole entry): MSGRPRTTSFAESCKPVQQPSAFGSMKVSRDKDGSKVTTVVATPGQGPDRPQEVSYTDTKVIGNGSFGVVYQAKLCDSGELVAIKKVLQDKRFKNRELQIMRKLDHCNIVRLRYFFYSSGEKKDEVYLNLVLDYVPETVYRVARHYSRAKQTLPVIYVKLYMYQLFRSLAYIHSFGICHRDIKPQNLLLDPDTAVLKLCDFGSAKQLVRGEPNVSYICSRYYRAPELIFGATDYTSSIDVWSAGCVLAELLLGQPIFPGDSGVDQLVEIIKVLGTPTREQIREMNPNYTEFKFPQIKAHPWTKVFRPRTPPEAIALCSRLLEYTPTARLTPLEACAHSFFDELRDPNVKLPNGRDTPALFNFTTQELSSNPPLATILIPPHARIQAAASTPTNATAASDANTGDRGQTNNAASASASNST
T3 sequence (P35968 20-1356): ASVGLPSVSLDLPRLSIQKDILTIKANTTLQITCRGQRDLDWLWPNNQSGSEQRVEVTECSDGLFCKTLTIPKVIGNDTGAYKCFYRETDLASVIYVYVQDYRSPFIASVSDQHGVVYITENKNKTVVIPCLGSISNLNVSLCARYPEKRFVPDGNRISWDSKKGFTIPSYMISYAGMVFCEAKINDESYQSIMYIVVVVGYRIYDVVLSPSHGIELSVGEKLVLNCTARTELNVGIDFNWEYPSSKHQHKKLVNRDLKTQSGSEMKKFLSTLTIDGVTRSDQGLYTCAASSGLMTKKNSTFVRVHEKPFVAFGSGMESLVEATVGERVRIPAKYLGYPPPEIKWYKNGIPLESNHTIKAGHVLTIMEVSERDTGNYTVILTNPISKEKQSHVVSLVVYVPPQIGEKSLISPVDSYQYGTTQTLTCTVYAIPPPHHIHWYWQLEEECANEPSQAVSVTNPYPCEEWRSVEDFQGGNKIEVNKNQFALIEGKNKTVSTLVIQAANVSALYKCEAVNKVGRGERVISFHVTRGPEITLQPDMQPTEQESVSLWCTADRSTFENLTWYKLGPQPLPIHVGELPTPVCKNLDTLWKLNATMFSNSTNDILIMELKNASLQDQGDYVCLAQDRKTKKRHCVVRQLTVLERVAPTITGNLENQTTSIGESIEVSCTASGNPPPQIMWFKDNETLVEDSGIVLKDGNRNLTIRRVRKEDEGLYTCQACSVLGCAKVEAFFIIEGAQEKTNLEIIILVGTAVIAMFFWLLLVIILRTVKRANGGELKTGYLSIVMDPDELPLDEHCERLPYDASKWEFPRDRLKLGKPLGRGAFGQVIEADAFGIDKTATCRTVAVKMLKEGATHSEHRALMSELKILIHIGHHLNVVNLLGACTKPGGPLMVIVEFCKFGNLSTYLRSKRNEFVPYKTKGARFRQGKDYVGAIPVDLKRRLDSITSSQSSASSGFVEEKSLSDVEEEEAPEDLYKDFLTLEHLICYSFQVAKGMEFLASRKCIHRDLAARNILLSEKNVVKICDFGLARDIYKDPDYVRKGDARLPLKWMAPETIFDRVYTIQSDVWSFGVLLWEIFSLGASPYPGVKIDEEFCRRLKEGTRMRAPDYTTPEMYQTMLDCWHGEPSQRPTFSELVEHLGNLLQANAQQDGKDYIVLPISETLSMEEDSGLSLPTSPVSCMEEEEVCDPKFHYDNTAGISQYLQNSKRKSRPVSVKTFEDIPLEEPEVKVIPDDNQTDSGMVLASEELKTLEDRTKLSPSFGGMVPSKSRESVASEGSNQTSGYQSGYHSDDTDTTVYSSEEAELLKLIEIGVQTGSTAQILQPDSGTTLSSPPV
T4 sequence (P53667 whole entry): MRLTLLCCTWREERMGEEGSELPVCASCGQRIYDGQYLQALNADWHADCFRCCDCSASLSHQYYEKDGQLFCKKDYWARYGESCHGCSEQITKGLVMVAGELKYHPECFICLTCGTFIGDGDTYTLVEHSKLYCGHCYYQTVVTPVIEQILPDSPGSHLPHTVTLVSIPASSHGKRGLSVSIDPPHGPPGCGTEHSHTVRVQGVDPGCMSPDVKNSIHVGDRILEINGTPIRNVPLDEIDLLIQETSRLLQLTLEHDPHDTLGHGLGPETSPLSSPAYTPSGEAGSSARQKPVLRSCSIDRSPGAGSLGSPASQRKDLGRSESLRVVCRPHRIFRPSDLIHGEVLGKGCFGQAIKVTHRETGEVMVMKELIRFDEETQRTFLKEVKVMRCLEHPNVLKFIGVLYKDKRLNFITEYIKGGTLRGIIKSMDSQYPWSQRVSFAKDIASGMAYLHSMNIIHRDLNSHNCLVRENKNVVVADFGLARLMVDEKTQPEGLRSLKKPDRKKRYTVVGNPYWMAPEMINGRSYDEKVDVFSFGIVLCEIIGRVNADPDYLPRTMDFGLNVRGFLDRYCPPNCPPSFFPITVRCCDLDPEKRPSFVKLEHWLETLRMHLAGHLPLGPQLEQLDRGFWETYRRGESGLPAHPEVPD

Sequence	Aurora-A Kinase Activity (%) (+SD %) (Aurora-A; peptide 100 μM)	GSK3β Kinase Activity (%) (+SD %) (GSK3β; peptide 100 μM)	KDR Kinase Activity (%) (+SD %) (KDR; peptide 100 μM)	LIMK1 Kinase Activity (%) (+SD %) (LIMK1; peptide 100 μM)	Aurora-A Kinase Activity (%) (+SD %) (Aurora-A; peptide 30 μM)	GSK3β Kinase Activity (%) (+SD %) (GSK3β; peptide 30 μM)	KDR Kinase Activity (%) (+SD %) (KDR; peptide 30 μM)	LIMK1 Kinase Activity (%) (+SD %) (LIMK1; peptide 30 μM)	Percentage of the 43 kinases Tested with less than 20% Activity (43 kinases; Concentration Tested 30 μM) [%]	Percentage of the 43 kinases Tested with less than 20% Activity (43 kinases; Concentration Tested 100 μM) [%]
KAFAKLAARLYRKALARQLGVAA	60 (1) %	184 (1) %	56 (4) %	93 (3) %	–	–	–	–	–	–
WLRRIKAWLRRIKALNRQLGVAA	65 (5) %	188 (4) %	78 (6) %	92 (2) %	46 (1) %	129 (2) %	27 (0) %	89 (3) %	47	–
FAKLAARLYRKALARQLGVAA	–	–	–	–	–	–	–	–	–	37

Source: patent US9327008B2, “Cell-permeant peptide-based inhibitor of kinases” (Purdue Research Foundation, priority 2008, dated 2016)
